One block for each molecule: values may come before it.
What was measured:
[1] = Kinetic characterization of dCK variants, substrate gemcitabine; type: biochemical; details: for rate of phosphorylation, Gem: Table 8, nucleoside 200 mM, ATP 1 μM [sic]
[2] = Kinetic analysis of dCK variants, substrate L-dU; type: biochemical; details: Table 8; nucleoside 200 mM, ATP 1 μM [sic]
Description: In a separate experiment, those mutant dCKs were analyzed in the presence of a nucleoside substrate at a concentration of 200 mM, and a phosphoryl donor ATP at a concentration of 1 μM.

[3] = Kinetic characterization of dCK variants, substrate D-dA; type: biochemical
[4] = Kinetic characterization of dCK variants, substrate D-dG; type: biochemical; details: for rate of phosphorylation, D-dG: Table 8, nucleoside 200 mM, ATP 1 μM [sic]
[5] = Kinetic characterization of dCK variants, substrate D-dC; type: biochemical; details: for rate of phosphorylation, D-dC: Table 8, nucleoside 200 mM, ATP 1 μM [sic]
[6] = Kinetic characterization of dCK variants, substrate D-dT; type: biochemical; details: for rate of phosphorylation, D-dT: Table 8, nucleoside 200 mM, ATP 1 μM [sic]
[7] = Kinetic characterization of dCK variants, substrate AraC; type: biochemical
[8] = Kinetic characterization of dCK variants, substrate L-dT; type: biochemical; details: for rate of phosphorylation, L-dT: Table 8, nucleoside 200 mM, ATP 1 μM [sic]
HL60 cell line = experiment: Apoptosis assay (Annexin V and PI staining) in CD33 positive HL60 cells; type: cell-based, human; details: HL60, AraC at 1 μM, after 96 hours
Description: The HuM195 antibody will only bind and internalize to cells expressing CD33. Thus, the HL60 cell line (derived from AML cells) and the NB4 cell line, which are CD33 positive, were used to test the activity of the HuM195-dCK system in live cells. The cells were treated with AraC, the HuM195-dCK conjugate, or the combination of HuM195-dCK and the AraC. Annexin V and propidium iodide (PI) staining was used to identify apoptotic cells. […] The combination of AraC with the conjugate results in 20% more killing than AraC alone.

NB4 cell line = experiment: Apoptosis assay in CD33 positive NB4 cells; type: cell-based; details: NB4, AraC 250 nM, after 96 hours
Description: The NB4 cells were also treated with AraC, the HuM195-dCK conjugate, or the combination of HuM195-dCK and the AraC, and an apoptosis assay was performed as above. The AraC dose used, however, was decreased from 1000 nM to 250 nM. The results were similar to those observed in the HL60 cells (FIG. 8). The conjugate with AraC (right bars) achieve ˜65% cell killing after 96 hours, whereas AraC alone was below 40%.

parent 293 cells = experiment: Proliferation of parental 293 cells treated with nucleoside analogs; type: cell-based, human; details: 1 μM
Description: Next, whether the dCK-S74E/R104M/D133A variant could inhibit cell growth in the presence of NAs including BVdU was tested. Human 293 cells were stably transfected with a recombinant expression construct encoding the dCK-S74E/R104M/D133A protein. The proliferative capacity of the stably transfected cell line was compared to the parental 293 cells after treating the cells with several nucleoside analogs such as AraC, gemcitabine, and BVdU. Since some of the nucleosides were first dissolved in the solvent DMSO, equal amounts of DMSO were used as control.

[9] = McSorley et al., 2008; cited from earlier work
Wild Type dCK [10] = target: T1, Wild Type dCK (Homo sapiens, UniProt P27707); experiment: Steady-state kinetic (colorimetric, enzyme-coupled) assay of nucleoside phosphorylation by wild type dCK
Wild Type dCK [11] = target: T1, Wild Type dCK; set-up: The electron density for dCK extended to the last residue (Leu260), while the N-terminus (residues 1 to 19) was flexible; His-tag (N); made in house; host or cells: E. coli BL21(DE3); details: Lotfi et al., 1999; Mansson et al., 2003; cited from earlier work
[12] = nucleoside concentration of 200 μM, ATP 1 mM
[13] = Wild Type dCK, 0.4 μM dCK, 1 mM ATP.Mg, 37° C.

T1 sequence (P27707 whole entry, the tested form may be a part): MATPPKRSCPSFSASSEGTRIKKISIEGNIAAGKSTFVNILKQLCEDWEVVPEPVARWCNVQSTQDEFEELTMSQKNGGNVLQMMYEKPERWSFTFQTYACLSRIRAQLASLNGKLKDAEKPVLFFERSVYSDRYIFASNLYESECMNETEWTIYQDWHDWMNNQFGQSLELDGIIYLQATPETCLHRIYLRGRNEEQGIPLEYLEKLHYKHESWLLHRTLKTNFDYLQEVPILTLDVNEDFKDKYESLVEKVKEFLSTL

Molecule: R104L/D133A: modified human dCK, leucine at position 104, alanine at position 133, SEQ ID NO:10
rate of phosphorylation, Gem [1]: 2.04 s⁻¹
kobs Gem [1, 12]: 2.04 ± 0.03 s⁻¹
Rel kobs (Gem) ([1]; relative to WT): 5.20
rate of phosphorylation, L-dU [2]: 2.56 s⁻¹
kobs D-dA [3, 12]: 3.45 ± 0.16 s⁻¹
Rel kobs (D-dA) ([3]; relative to WT): 2.9
rate of phosphorylation, D-dG [4]: 0.3 s⁻¹
kobs D-dG [4, 12]: 0.30 ± 0.01 s⁻¹
Rel kobs (D-dG) ([4]; relative to WT): 0.32
rate of phosphorylation, D-dC [5]: 0.27 s⁻¹
kobs D-dC [5, 12]: 0.27 ± 0.09 s⁻¹
Rel kobs (D-dC) ([5]; relative to WT): 9
Km [6]: < 25 µM
rate of phosphorylation, D-dT [6]: 2.86 s⁻¹
kobs D-dT [6, 12]: 2.86 ± 0.09 s⁻¹
Rel kobs (D-dT) ([6]; relative to WT): 358
kobs AraC [7, 12]: 0.64 ± 0.06 s⁻¹
Rel kobs (AraC) ([7]; relative to WT): 0.35
rate of phosphorylation, L-dT [8]: 1.07 s⁻¹
kobs L-dT [8, 12]: 1.07 ± 0.09 s⁻¹
Rel kobs (L-dT) ([8]; relative to WT): 63

Molecule: Nc1ccn([C@@H]2O[C@H](CO)[C@@H](O)[C@@H]2O)c(=O)n1 [Ara-C, 1-β-D-arabinofuranosylcytosine]
cell death (apoptotic cells) (HL60 cell line): ~50%
cell killing (NB4 cell line): below 40%
inhibition of growth (parent 293 cells): no inhibitory effect

Molecule: dCK S74E: dCK S74E mutant mimicking the Ser74 phosphorylated state [reference compound]
increase of the rate of phosphorylation of dC [9]: 11 fold

kcat, Wild-type (Wild Type dCK [10]; Table 9): ~2.5 s⁻¹
Molecule: Nc1nc2c(ncn2[C@H]2C[C@H](O)[C@@H](CO)O2)c(=O)[nH]1 [D-dG, deoxyguanosine]

Molecule: R104Q: human dCK variant of Table 8 with Q at position 104 and unchanged D133
rate of phosphorylation, Gem [1]: 0.06 s⁻¹
rate of phosphorylation, L-dU [2]: 0.06 s⁻¹
rate of phosphorylation, D-dG [4]: 0.06 s⁻¹
rate of phosphorylation, D-dC [5]: 0.07 s⁻¹
rate of phosphorylation, D-dT [6]: 0.05 s⁻¹
rate of phosphorylation, L-dT [8]: 0.06 s⁻¹

Km (Wild Type dCK [10]; [13]): 407 µM
kcat (Wild Type dCK [10]; [13]): 0.18 s⁻¹
Molecule: Nc1ccn([C@H]2CC[C@@H](CO)O2)c(=O)n1 [ddC, 2′,3′-dideoxycytidine]

Molecule: Nc1nc(Cl)nc2c1ncn2[C@@H]1O[C@H](CO)[C@@H](O)[C@@H]1F [clofarabine, 2-chloro-2′-arabino-fluoro-2′-deoxyadenosine]
efficiency as substrate for dCK relative to cladribine (Wild Type dCK [11]): ~3 fold

Source: US8349318B2, “Use of specifically engineered enzymes to enhance the efficacy of prodrugs” (The Board of Trustees of the University of Illinois, priority 2008, dated 2013)
